This assay has as its target each recombinant exocyst subunit. Description: pull-down; MBP or MBP-tagged proteins immobilised on amylose resin; equimolar purified Sec10(145–827) (1 µM) added; 10 mM HEPES pH 7, 100 mM NaCl, 0.1% NP-40, 1 mM DTT; 1 h at 4°C; three washes; Western blot with α-His5 and α-MBP. Background: In western blotting, separated proteins are transferred to a membrane and probed.

B1: Sec10(145–827) (domain or fragment)
chain: GDKLETAIKKKQNYIQSVELIRRYNDFYSMGKSDIVEQLRLSKNWKLNLKSVKLMKNLLILSSKLETSSIPKTINTKLVIEKYSEMMENELLENFNSAYRENNFTKLNEIAIILNNFNGGVNVIQSFINQHDYFIDTKQIDLENEFENVFIKNVKFKEQLIDFENHSVIIETSMQNLINDVETVIKNESKIVKRVFEEKATHVIQLFIQRVFAQKIEPRFEVLLRNSLSISNLAYVRILHGLFTLFGKFTKSLIDYFQLLEIDDSNQILSTTLEQCFADLFSHYLYDRSKYFGIEKRSLEAILVDMTSKFTVNYDKEINKRVLLDKYKEKLSTNVDAFMHSPRGNTHSRQDSTSRSKLSQFNSFLKTHLDKDHLSLNRTNTLSDSFNNSSSSTQYDVANNSSSLVNSSFTASDIDNSPNSPANYSLNDVDSMLKCVVESTARVMELIPNKAHLYILEILKIMFLGIVDSYMEIALEVAYWKICKVDINKTAGVVNLNFLKFISMSTEILDLLSISIKSIFLPLLNNSPEIKAQIIEMTNSQIQKMEILINIILQETITVISTKFSAILCKQKKKDFVPKSQELLDQDTLPAIEIVNILNLIFEQSSKFLKGKNLQTFLTLIGEELYGLLLSHYSHFQVNSIGGVVVTKDIIGYQTAIEDWGVASLIDKFATLRELANLFTVQP
Turning to B1, the percent bound is 10 to 20%.
